According to patent US20150266974A1 (RINAT NEUROSCIENCE, published 2015):

Key:
[1] = molecular target: T1, human IgE-Fc (Ch2-Ch3-Ch4), minimally biotinylated (human, UniProt P01854-1 105-428, limits assumed, minimally biotinylated with EZ-Link NHS-LC-LC-biotin (sites not given)); experiment: SPR Biacore T200, KD at pH 6.0 over KD at pH 7.4
T1 construct: domain: Ch2-Ch3-Ch4; Captured on NeutrAvidin chip; also called IgE construct; B-IgE
Protocol: (§1) All Biacore experiments were performed using two of the four flow cells (1&2 or 3&4) of the sensor chip in parallel. The downstream flow cell was used as analysis flow cell while the other flow cell was used as a reference surface. Thus, biotinylated IgE (B-IgE) was captured on the analysis flow cell and every purified Fab fragment was injected over both. The sensorgram from the reference flow cell was subtracted from that of the analysis flow cell.
(§2) Following capture of B-IgE, a purified Fab fragment was injected at 30 μL/min on analysis and reference flow cells in a series of injections from low to high concentration. The top concentration of Fab ranged from 30 nM to 200 nM and the dilution factor was 3-fold. Each Fab dilution was injected for 2 minutes, followed by a final dissociation time of 30 minutes after the last injection. A similar set of injections was performed with running buffer in place of Fab for double-referencing purposes (double-referencing as described in Myszka, J Mol Recognit 12: 279-284, 1999). The double-referenced sensorgrams were fit globally to a simple 1:1 Langmuir with mass transport binding model.
(§3) The experiments were performed at pH 6.0 and 7.4 using sample and running buffers of 10 mM Sodium Phosphate, 150 mM Sodium Chloride, 0.05% Tween-20, 1 mg/mL BSA, pH 6 and 10 mM Sodium Phosphate, 150 mM Sodium Chloride, 0.05% Tween-20, 1 mg/mL BSA, pH 7.4, respectively.

[2] = molecular target: T1, human IgE-Fc (Ch2-Ch3-Ch4), minimally …; experiment: SPR Biacore T200, kd at pH 6.0 over kd at pH 7.4
Protocol: (§4) A biotin-capture surface was prepared by immobilization of NeutrAvidin: all flow cells of a Biacore CM4 sensor chip were activated with a 1:1 (v/v) mixture of 400 mM EDC and 100 mM NHS for 7 minutes, at a flow rate of 10 μL/min. NeutrAvidin (Pierce, product #: 31000) was diluted to 100 μg/mL in 10 mM Sodium Acetate pH 4.5 and injected on all flow cells for 7 minutes at 20 μL/min. All flow cells were blocked with 100 mM Ethylenediamine in 150 mM Borate buffer pH 8.5 for 7 minutes at 10 μL/min.
as §2, §3

[3] = molecular target: T1, human IgE-Fc (Ch2-Ch3-Ch4), minimally …; experiment: SPR Biacore T200, biotin-IgE-Fc captured, Fab injected, 25 C, pH 6.0
Protocol: as §4, §2, §3

[4] = molecular target: T1, human IgE-Fc (Ch2-Ch3-Ch4), minimally …; experiment: SPR Biacore T200, biotin-IgE-Fc captured, Fab injected, 25 C, pH 7.4
Protocol: as §1, §2, §3

[5] = molecular target: T2, PCSK9 (species not stated, Table 7 assay) (Pan troglodytes (Chimpanzee); Homo …, UniProt A8T644 31-152; Q8NBP7 153-692); experiment: SPR Biacore 2000, IgG on anti-human Fc, PCSK9 injected, pH 6.0
T2 construct: kept apart from m1 and m2
Protocol: (§5) Affinity and kinetic parameters for PCSK9 antibodies h5A10 and 5L1721H23_{—}6L3H3 as well as PCSK9 antibody H1M300N (see US2010/0166768, e.g., at Table 7). All experiments were performed on a Biacore 2000 biosensor.
(§6) An anti-human Fc sensor chip was prepared by activating all flow cells of a Biacore CM4 sensor chip with a 1:1 (v/v) mixture of 400 mM EDC and 100 mM NHS for 7 minutes, at a flow rate of 10 μL/min. An anti-human Fc reagent (Goat F(AB′)2 Fragment to Human IgG Fc, Cappel Catalog #: 55053) was diluted to 60 μg/mL in 10 mM Sodium Acetate pH 5.0 and injected on all flow cells for 7 minutes at 20 μL/min. All flow cells were blocked with 100 mM ethylenediamine in 150 mM Borate buffer pH 8.5 for 7 minutes at 10 μL/min.
(§7) The experiments were performed at pH 6.0 and 7.4 using sample and running buffers of 10 mM Sodium Phosphate, 150 mM Sodium Chloride, 0.05% Tween-20, pH 6 and 10 mM Sodium Phosphate, 150 mM Sodium Chloride, 0.05% Tween-20, pH 7.4, respectively.

[6] = molecular target: T2, PCSK9 (species not stated, Table 7 …); experiment: SPR Biacore 2000, IgG on anti-human Fc, PCSK9 injected, pH 7.4
Protocol: as §5, §6, §7

T2 sequence (A8T644 31-152 limits assumed, chain 1 of 2): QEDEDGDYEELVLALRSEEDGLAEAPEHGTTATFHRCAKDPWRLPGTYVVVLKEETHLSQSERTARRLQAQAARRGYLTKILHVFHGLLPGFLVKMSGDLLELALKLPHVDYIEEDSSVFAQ
T2 sequence (A8T644 other isoform, or with tags, fused parts or gaps limits assumed, chain 2 of 2): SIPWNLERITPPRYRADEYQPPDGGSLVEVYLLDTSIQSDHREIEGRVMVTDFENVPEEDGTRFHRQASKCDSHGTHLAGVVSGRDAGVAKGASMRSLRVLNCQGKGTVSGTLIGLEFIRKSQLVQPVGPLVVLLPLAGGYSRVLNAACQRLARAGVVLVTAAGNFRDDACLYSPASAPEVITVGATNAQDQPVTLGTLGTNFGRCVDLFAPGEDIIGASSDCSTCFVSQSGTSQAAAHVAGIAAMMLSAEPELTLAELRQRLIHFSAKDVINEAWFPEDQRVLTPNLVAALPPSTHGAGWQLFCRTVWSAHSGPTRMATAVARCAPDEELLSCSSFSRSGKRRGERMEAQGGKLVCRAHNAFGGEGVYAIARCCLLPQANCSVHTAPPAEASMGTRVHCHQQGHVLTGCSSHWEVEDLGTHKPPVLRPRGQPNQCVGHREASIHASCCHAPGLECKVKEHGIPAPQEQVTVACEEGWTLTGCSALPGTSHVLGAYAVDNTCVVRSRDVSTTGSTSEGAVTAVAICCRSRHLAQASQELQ
T1 sequence (P01854 other isoform, or with tags, fused parts or gaps limits assumed): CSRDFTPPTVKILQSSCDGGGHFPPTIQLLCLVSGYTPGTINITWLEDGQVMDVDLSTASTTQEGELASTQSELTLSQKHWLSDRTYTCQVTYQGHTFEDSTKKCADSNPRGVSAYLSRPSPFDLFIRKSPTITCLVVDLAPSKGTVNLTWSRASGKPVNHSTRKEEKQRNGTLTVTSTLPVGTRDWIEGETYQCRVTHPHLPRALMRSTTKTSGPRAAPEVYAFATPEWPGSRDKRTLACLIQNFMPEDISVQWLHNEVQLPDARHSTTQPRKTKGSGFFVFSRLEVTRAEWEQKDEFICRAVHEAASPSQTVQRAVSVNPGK

Row | Binder | KD ratio pH 6.0/pH 7.4 [1] | kd ratio pH 6/pH 7.4 [2] | Kd [3] | koff [3] | kon [3] | Kd [4] | koff [4] | kon [4] | Kd [5] | koff [5] | kon [5] | t1/2 [5] | Kd [6] | koff [6] | kon [6] | t1/2 [6]
1 | H17H25H100Y (Fab) (Fab, V domains shown) VH: QVQLVQSGAEVKKPGASVKVSCKASGYTFTSHDINWVRQATGQGLEWMGWMDPHSGNTGYAQKFQGRVTMTRNTSISTAYMELSSLRSEDTAVYYCARGYYDSDGYYSFSGMDVWGQGTTVTVSS VL: not shown | 8.6 | 8.63 | 16.3 nM | 0.00364 s⁻¹ | 223000 M⁻¹ s⁻¹ | 1.9 nM | 0.000422 s⁻¹ | 222000 M⁻¹ s⁻¹ |  |  |  |  |  |  |  | 
2 | L38H312H100Y (Fab) (Fab, V domains shown) VH: QVQLVQSGAEVKKPGASVKVSCKASGYTFTSYDINWVRQATGQGLEWMGWMDPNSGNTGYAQKFQGRVTMTRNTSISTAYMELSSLRSEDTAVYYCARGYYDSDGYYSFHGMDVWGQGTTVTVSS VL: not shown | 7 | 11.3 | 37.1 nM | 0.0122 s⁻¹ | 329000 M⁻¹ s⁻¹ | 5.33 nM | 0.00108 s⁻¹ | 202000 M⁻¹ s⁻¹ |  |  |  |  |  |  |  | 
3 | h5A10 (antibody, V domains shown, In the histidine scan it was used as a Fab with a histidine tag at the C-terminus of CH1; also called 5A10 hu frame) VH: QVQLVQSGAEVKKPGASVKVSCKASGYTFTSYYMHWVRQAPGQGLEWMGEINPSGGRTNYNEKFKSRVTMTRDTSTSTVYMELSSLRSEDTAVYYCARERPLYAMDYWGQGTTVTVSS VL: DIQMTQSPSSLSASVGDRVTITCKASQDVSTAVAWYQQKPGKAPKLLIYSASYRYTGVPSRFSGSGSGTDFTFTISSLQPEDIATYYCQQRYSTPRTFGQGTKLEIK |  |  |  |  |  |  |  |  | < 0.181 nM | < 6e-05 s⁻¹ | 331000 M⁻¹ s⁻¹ | < 3.22 h | < 0.249 nM | < 6e-05 s⁻¹ | 241000 M⁻¹ s⁻¹ | < 3.22 h

Continued by falling Kd [3], values first:

Row | KD ratio pH 6.0/pH 7.4 [1] | kd ratio pH 6/pH 7.4 [2] | Kd [3] | koff [3] | kon [3] | Kd [4] | koff [4] | kon [4] | Kd [5] | koff [5] | kon [5] | t1/2 [5] | Kd [6] | koff [6] | kon [6] | t1/2 [6] | Binder
4 | 8 | 7.66 | 5.08 nM | 0.00151 s⁻¹ | 298000 M⁻¹ s⁻¹ | 0.634 nM | 0.000197 s⁻¹ | 311000 M⁻¹ s⁻¹ |  |  |  |  |  |  |  |  | H25H100Y (Fab) (Fab, V domains shown) VH: QVQLVQSGAEVKKPGASVKVSCKASGYTFTSYDINWVRQATGQGLEWMGWMDPHSGNTGYAQKFQGRVTMTRNTSISTAYMELSSLRSEDTAVYYCARGYYDSDGYYSFSGMDVWGQGTTVTVSS VL: not shown
5 | 3.1 | 3.03 | 0.149 nM | 0.000152 s⁻¹ | 1.02e+06 M⁻¹ s⁻¹ | 0.0487 nM | 5.01e-05 s⁻¹ | 1.03e+06 M⁻¹ s⁻¹ |  |  |  |  |  |  |  |  | anti-IgE antibody 5.948-H100Y (Fab) (Fab, V domains shown, Injected as purified Fab fragment) VH: QVQLVQSGAEVKKPGASVKVSCKASGYTFTSYDINWVRQATGQGLEWMGWMDPNSGNTGYAQKFQGRVTMTRNTSISTAYMELSSLRSEDTAVYYCARGYYDSDGYYSFSGMDVWGQGTTVTVSS VL: not shown
